{"source": "IntAct's records for PubMed 25173175", "parents": {"B1": {"name": "Cohesin subunit SA-2 (Homo sapiens), Q8N3U4 (parent)", "chain": "MIAAPEIPTDFNLLQESETHFSSDTDFEDIEGKNQKQGKGKTCKKGKKGPAEKGKGGNGGGKPPSGPNRMNGHHQQNGVENMMLFEVVKMGKSAMQSVVDDWIESYKHDRDIALLDLINFFIQCSGCKGVVTAEMFRHMQNSEIIRKMTEEFDEDSGDYPLTMAGPQWKKFKSSFCEFIGVLVRQCQYSIIYDEYMMDTVISLLTGLSDSQVRAFRHTSTLAAMKLMTALVNVALNLSINMDNTQRQYEAERNKMIGKRANERLELLLQKRKELQENQDEIENMMNAIFKGVFVHRYRDAIAEIRAICIEEIGIWMKMYSDAFLNDSYLKYVGWTMHDKQGEVRLKCLTALQGLYYNKELNSKLELFTSRFKDRIVSMTLDKEYDVAVQAIKLLTLVLQSSEEVLTAEDCENVYHLVYSAHRPVAVAAGEFLYKKLFSRRDPEEDGMMKRRGRQGPNANLVKTLVFFFLESELHEHAAYLVDSMWDCATELLKDWECMNSLLLEEPLSGEEALTDRQESALIEIMLCTIRQAAECHPPVGRGTGKRVLTAKEKKTQLDDRTKITELFAVALPQLLAKYSVDAEKVTNLLQLPQYFDLEIYTTGRLEKHLDALLRQIRNIVEKHTDTDVLEACSKTYHALCNEEFTIFNRVDISRSQLIDELADKFNRLLEDFLQEGEEPDEDDAYQVLSTLKRITAFHNAHDLSKWDLFACNYKLLKTGIENGDMPEQIVIHALQCTHYVILWQLAKITESSSTKEDLLRLKKQMRVFCQICQHYLTNVNTTVKEQAFTILCDILMIFSHQIMSGGRDMLEPLVYTPDSSLQSELLSFILDHVFIEQDDDNNSADGQQEDEASKIEALHKRRNLLAAFCKLIVYTVVEMNTAADIFKQYMKYYNDYGDIIKETMSKTRQIDKIQCAKTLILSLQQLFNEMIQENGYNFDRSSSTFSGIKELARRFALTFGLDQLKTREAIAMLHKDGIEFAFKEPNPQGESHPPLNLAFLDILSEFSSKLLRQDKRTVYVYLEKFMTFQMSLRREDVWLPLMSYRNSLLAGGDDDTMSVISGISSRGSTVRSKKSKPSTGKRKVVEGMQLSLTEESSSSDSMWLSREQTLHTPVMMQTPQLTSTIMREPKRLRPEDSFMSVYPMQTEHHQTPLDYNRRGTSLMEDDEEPIVEDVMMSSEGRIEDLNEGMDFDTMDIDLPPSKNRRERTELKPDFFDPASIMDESVLGVSMF", "partner": "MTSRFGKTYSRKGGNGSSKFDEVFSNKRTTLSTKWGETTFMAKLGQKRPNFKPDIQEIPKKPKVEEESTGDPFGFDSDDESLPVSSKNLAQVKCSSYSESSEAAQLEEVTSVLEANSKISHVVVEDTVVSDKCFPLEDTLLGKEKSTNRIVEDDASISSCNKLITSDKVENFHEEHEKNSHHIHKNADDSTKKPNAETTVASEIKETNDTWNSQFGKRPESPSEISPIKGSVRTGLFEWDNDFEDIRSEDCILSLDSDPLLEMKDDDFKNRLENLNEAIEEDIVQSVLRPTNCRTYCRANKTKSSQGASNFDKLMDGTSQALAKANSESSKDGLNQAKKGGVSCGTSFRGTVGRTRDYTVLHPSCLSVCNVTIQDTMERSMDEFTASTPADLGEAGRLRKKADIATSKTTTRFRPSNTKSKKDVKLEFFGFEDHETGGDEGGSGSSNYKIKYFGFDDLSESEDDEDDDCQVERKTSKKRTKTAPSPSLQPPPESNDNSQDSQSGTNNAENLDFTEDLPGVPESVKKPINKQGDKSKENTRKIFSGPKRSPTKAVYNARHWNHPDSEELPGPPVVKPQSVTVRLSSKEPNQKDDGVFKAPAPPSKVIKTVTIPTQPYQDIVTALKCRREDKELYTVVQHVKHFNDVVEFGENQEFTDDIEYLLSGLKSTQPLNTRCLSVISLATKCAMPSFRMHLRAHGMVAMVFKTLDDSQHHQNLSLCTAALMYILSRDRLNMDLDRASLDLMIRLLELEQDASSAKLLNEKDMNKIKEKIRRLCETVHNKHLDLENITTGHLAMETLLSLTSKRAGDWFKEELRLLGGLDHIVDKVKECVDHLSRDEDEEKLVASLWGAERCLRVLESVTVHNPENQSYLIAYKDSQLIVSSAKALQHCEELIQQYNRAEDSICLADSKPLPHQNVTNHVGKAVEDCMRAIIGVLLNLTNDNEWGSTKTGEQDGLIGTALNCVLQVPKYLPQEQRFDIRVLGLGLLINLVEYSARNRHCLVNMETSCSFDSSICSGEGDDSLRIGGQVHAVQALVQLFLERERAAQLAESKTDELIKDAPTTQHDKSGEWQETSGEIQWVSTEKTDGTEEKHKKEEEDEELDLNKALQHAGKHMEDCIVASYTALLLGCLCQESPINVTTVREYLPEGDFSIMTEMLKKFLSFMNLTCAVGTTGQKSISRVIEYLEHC"}, "B2": {"name": "Cohesin subunit SA-2 (Homo sapiens), Q8N3U4 (parent)", "chain": "B1 chain", "partner": "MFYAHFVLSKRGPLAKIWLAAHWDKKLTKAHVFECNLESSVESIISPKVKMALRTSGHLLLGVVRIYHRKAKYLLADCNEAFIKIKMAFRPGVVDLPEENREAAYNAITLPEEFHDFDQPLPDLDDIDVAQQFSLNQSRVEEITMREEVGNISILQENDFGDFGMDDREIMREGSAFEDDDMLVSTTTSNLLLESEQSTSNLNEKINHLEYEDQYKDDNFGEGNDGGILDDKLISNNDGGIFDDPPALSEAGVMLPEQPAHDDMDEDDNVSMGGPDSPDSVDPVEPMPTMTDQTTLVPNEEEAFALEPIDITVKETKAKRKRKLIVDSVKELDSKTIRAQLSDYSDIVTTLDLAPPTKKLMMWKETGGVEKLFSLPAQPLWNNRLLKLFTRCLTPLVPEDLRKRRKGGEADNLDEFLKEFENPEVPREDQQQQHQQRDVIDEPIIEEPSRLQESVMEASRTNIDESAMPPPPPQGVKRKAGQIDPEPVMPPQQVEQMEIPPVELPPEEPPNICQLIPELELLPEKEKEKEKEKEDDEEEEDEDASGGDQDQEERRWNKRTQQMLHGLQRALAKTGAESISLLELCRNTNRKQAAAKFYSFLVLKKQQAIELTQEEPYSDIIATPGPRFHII"}, "B3": {"name": "Double-strand-break repair protein rad21 homolog (Homo sapiens), O60216 (parent)", "chain": "B2 partner", "partner": "B1 chain"}}}
{"variants_of": "B1", "details": "with wapl_human WAPL"}
{"variant": "D326K", "effect of a mutation on the interaction": "disrupting interaction strength"}
{"variant": "W334A", "effect of a mutation on the interaction": "decreasing interaction strength"}
{"variant": "K330E", "effect of a mutation on the interaction": "disrupting interaction strength"}
{"variant": "K290E", "effect of a mutation on the interaction": "disrupting interaction strength"}
{"variants_of": "B2", "details": "with rad21_human RAD21, O60216"}
{"variant": "D793K", "effect of a mutation on the interaction": "disrupting interaction strength"}
{"variants_of": "B3", "details": "with stag2_human STAG2, Q8N3U4"}
{"variant": "L385A;L388A;F389A", "effect of a mutation on the interaction": "disrupting interaction strength"}
{"variants_of": "B3", "details": "with stag2_human STAG2, Q8N3U4", "remark": "another data set of the same source"}
{"variant": "D327K", "effect of a mutation on the interaction": "decreasing interaction strength"}
